Laboratory results taken from the supplement of paper PMC12042874.
± gives the uncertainty stated by the source.

Assay: amyloid nucleation score (Sup35N fusion, yeast selection) (log enrichment); library NNK1; higher = more nucleation; inactive = no reads after selection
Method in brief: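 Output and input plasmid inserts were sequenced by Illumina after psi-negative yeast carrying Sup35N fused to peptides of 20 random codons had been induced 24 hours with 100 μM copper sulfate and grown 7 days at 30°C on medium lacking adenine and uracil. The nucleation score is the DiMSum log enrichment of output over input reads, centred on the mode score of non-aggregating sequences. Sequences with under 100 input reads were excluded.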

Row | Substance | amyloid nucleation score
1 | PGMKISSFCYTTMNHYNKSF | -0.375 ± 1.2
2 | NFLFCFCHYCIWKVCTVAGC | -0.073 ± 0.45
3 | IENSIGGMQLGVSISYMSGT | 0.208 ± 0.41
4 | LLQAQHSF | 0.208 ± 0.21
5 | IMVANVSPSQKFNG | 0.346 ± 0.4
6 | RYCNKTFSTLSPVHLF | 1.11 ± 0.97
7 | CWFANRSLPVQIPRVW | -0.394 ± 0.48
8 | RYRNVVRSFFNEYRLCPGIE | -0.235 ± 1.4
9 | PPMDIGLLPVRI | -1.69 ± 1.7
10 | HCMGRACPHS | 5.11 ± 0.11
11 | DVCASGRKIVRFFPMSARAQ | inactive
12 | SSETCTK | -0.024 ± 0.55
13 | FLSIYDTIVDCWVALVLVRG | -0.723 ± 0.91
14 | KFDPVKQYLCMYFFTYQIES | 2.06 ± 0.15
15 | SYVFDKGFIVNVITRCRKKM | 1.44 ± 0.34
16 | NKQEQHFF | 0.052 ± 0.4
17 | YLGRVSFIGHFVVTVSGSSQ | 1.1 ± 0.21
18 | CLQMRSVSYVIMRFTGKLTW | 0.693 ± 0.32
19 | DCFLCLKVLGMSAVLREWYL | -1.17 ± 0.94
20 | PALKYFEAVVH | inactive
21 | SCEGGCAGSCGVP | -0.641 ± 1.5
22 | KVSYCSSGYLTSLTWRFLLI | 0.888 ± 0.28
23 | FLKNEHSYTGWCFSTWPVRY | 1.95 ± 0.29
24 | LAHVFWRIDWMDKWGYNGDA | 0.992 ± 0.26
25 | RWVVSVPISCARACFSG | 0.579 ± 0.73
26 | FVSSVGKSEQVPSTEFFCVS | 0.174 ± 1.5

Row | Substance | amyloid nucleation score
27 | YMGGEWKD | 6.801 ± 0.06
28 | SCLNVNVMLYSWESVGPKSG | inactive
29 | GLRYFKLLLSEGSR | -0.209 ± 1
30 | FYLVATCVAFFRLHWFACN | -0.218 ± 0.36
31 | PECTNDKVY | 0.541 ± 0.52
32 | GASWNCAQYRMMD | -0.338 ± 1.7
33 | VRFSVLKVTVLTKARNEVST | 1.7 ± 0.24
34 | TMGSLMFWF | -0.356 ± 0.95
35 | RLCAQ | 0.592 ± 0.81
36 | RLNKWWRTKDSYTGL | 0.258 ± 0.41
37 | VIMCNI | 0.068 ± 0.93
38 | VLCGNPLFRFVLGWRFCVWG | 0.335 ± 1.1
39 | RFVCLLIGVSQLPQLRCEYR | -1.17 ± 0.47
40 | GCTLLESCVYGKSVRSYHQW | 0.253 ± 0.52
41 | PAATNAWGWRVPDPGSMIPS | -0.3 ± 0.42
42 | VDSHVYRNT | -0.203 ± 1.1
43 | VIDAIQPRKYGFV | -0.462 ± 0.58
44 | FGVRQVYINGNFLRCLGTKS | 0.751 ± 0.93
45 | MMPYQSWDESSSCEDTLKVT | 0.453 ± 0.35
46 | AFGLMNCDRLSLTSNINTGG | -0.4 ± 0.41
47 | HDLHFFHGVAARQNVRRAYR | 0.724 ± 1
48 | RSHQSQGMPSLFNLSLVLFY | 6.489 ± 0.064
49 | LITLAFVVSCVSYSRGSKRR | 1.26 ± 0.17
50 | WVWFCNEF | -0.307 ± 0.57
51 | YGFLVKS | 0.1 ± 0.9
52 | IREFRRL | 0.313 ± 0.65

Row | Substance | amyloid nucleation score
53 | KYYYWRRVPVCQKGDLF | 0.095 ± 0.31
54 | VNCFSTLSMLWMSVQTEPRV | 1.04 ± 0.28
55 | SMSAQPFCNHV | -0.926 ± 0.91
56 | RRTRKGWIMWPGGVDNHGNY | -0.313 ± 1.3
57 | TTSPGSNSRDPAGMMIT | 0.38 ± 0.32
58 | QRFWYTGFGSVPIQDIEVGI | 0.328 ± 0.32
59 | FYSALLGQTRYSRSSRSSTE | inactive
60 | NKAFGMIV | -0.103 ± 0.79
61 | CIFGHWAFFDCNCYILYVLY | 2.27 ± 0.23
62 | CYLLSRGYWSDMLGKWARGV | 0.131 ± 0.54
63 | VVSTPHSN | -0.099 ± 0.85
64 | FNSTTTESLHAVAEGTMNPL | 0.671 ± 0.54
65 | FGTLCSGDRYVRR | -0.611 ± 0.28
66 | AWHTRPQTKTERPLRPVFRA | -0.733 ± 0.69
67 | RPILLSSLPIHSERMWSTSL | -0.257 ± 1.4
68 | CLEDFLDNLFSSGYFKFQLV | inactive
69 | LTQWPGEGKV | -0.303 ± 0.8
70 | FLSRFLMVRTRSAASVSAYE | -0.204 ± 0.39
71 | YRAKSSEGL | -0.631 ± 0.71
72 | ILYMLPILRKLVSFEFNYIC | 0.117 ± 0.21
73 | GGLSNSLSTAVQDW | -0.995 ± 0.61
74 | KNFAVRWNPVTSDWFVTLSV | -0.429 ± 0.4
75 | AIGSCWTGLRNGT | 0.734 ± 1.1
76 | RVVVQNI | 1.18 ± 0.97
77 | NSREYDRATGNGGTEGKSVT | -0.45 ± 1.1
78 | LQQMIRRLVLRFMAATAL | 0.14 ± 0.37

Row | Substance | amyloid nucleation score
79 | NEDAPFMVTSKVVSGT | 0.176 ± 0.34
80 | VNLHWGSDEAVSIARDIYTW | 0.533 ± 0.29
81 | HARTSRVRNDSSRAALNARW | -0.392 ± 0.36
82 | VFNRFCYSSFCLTYRDYDSQ | 8.198 ± 0.07
83 | FWGWLRPWLLKSSEDPLKLE | -0.617 ± 0.57
84 | IMTPIRGNN | 0.209 ± 0.34
85 | TFVYLCVAHS | 1.07 ± 0.53
86 | SNVFYVYRVVKSCIIFDSVL | 2.6 ± 0.076
87 | PIFMVSLST | -0.661 ± 0.66
88 | AVRVTLKL | 1.31 ± 0.2
89 | LRTWDSIFYDLMGACGRPWV | -0.521 ± 0.54
90 | LKFMSPSLSTIDRDIK | 0.156 ± 0.27
91 | CWYWDSPSVGFTAILYYLAG | 0.138 ± 0.57
92 | HNCTTGVTFKSEIASILVQP | -0.261 ± 0.4
93 | LDRYVRFEIRS | 0.661 ± 0.56
94 | SDYMLNFCYSGLIVRMVFAA | -0.508 ± 0.98
95 | LETRLVYLWENLPLAQTNVA | 0.238 ± 0.48
96 | RSWLLIKLTSQHASKMLVTG | 0.569 ± 0.46
97 | LTRLSNCVLGGSC | -0.512 ± 0.71
98 | MFRYNCRRAIQIVFMYLWTP | 0.779 ± 0.28
99 | DNGLGKCSMQPEWHRAWGAR | 2.06 ± 0.13
100 | QTDSTVGD | -0.522 ± 1.4
101 | NLERKEVLSREGCICANFTR | -0.345 ± 0.45
102 | EHWSRSVGSHASVWFVAPAG | inactive
103 | VECAYSVTFSKMNRNTDFRV | 0.265 ± 0.35
104 | LFIYDLQLRHDYHQGYELES | 0.544 ± 0.9

Row | Substance | amyloid nucleation score
105 | MLKRVVVLLRPSVRGRVDRV | -0.11 ± 0.28
106 | NLRFRRYTLVSGMQGNKIWH | -0.234 ± 0.48
107 | SEGSLLYTMWGTLVDWSSCV | -1.08 ± 1.4
108 | TVTAVY | inactive
109 | LGRLAVDHLVCRRYDSSLHN | 0.089 ± 1.1
110 | LRSSVDLTRGESYNSGKFFN | 0.435 ± 0.32
111 | IYMMECEVL | -0.157 ± 0.42
112 | YNGLGIEETNWAARGS | -1.12 ± 1.1
113 | SELWPRVDYCLATYSINSYA | -0.234 ± 0.3
114 | CVKSYK | 0.48 ± 0.66
115 | ICWRMKVMWPYRTIGSSLTF | 1.02 ± 0.45
116 | NSAILITNIECLYNIITLFT | 6.389 ± 0.048
117 | HNHADATQKKCGVQ | -0.112 ± 0.28
118 | WYRQSAFNVLTDSLIILLVC | 4.99 ± 0.07
119 | SNLDLHRSVLSRLGKYLDFP | 5.35 ± 0.081
120 | GVVGNTHQVPNRGRRSRFLL | -1.54 ± 1.7
121 | RDKLYA | -1.2 ± 1.5
122 | NLVYTAIAPPFASFRK | 0.005 ± 0.65
123 | MCKVHIIEHCSLYWRSCGIW | inactive
124 | VILSCSLLFCFNRSWGLGNE | 7.04 ± 0.067
125 | QHKTRQYHVSPVRVTIL | 0.135 ± 0.65
126 | MMLSGFDIIYGIALCPLHVQ | -0.14 ± 0.3
127 | CFSKLEISFDESFR | -0.154 ± 0.28
128 | LNNSGVTTICLAGRVTFCTD | 6.55 ± 0.075
